Measured values from US20190183976A1.

Molecular target: T1, CXCR4-VC (human), P61073
T1 chain: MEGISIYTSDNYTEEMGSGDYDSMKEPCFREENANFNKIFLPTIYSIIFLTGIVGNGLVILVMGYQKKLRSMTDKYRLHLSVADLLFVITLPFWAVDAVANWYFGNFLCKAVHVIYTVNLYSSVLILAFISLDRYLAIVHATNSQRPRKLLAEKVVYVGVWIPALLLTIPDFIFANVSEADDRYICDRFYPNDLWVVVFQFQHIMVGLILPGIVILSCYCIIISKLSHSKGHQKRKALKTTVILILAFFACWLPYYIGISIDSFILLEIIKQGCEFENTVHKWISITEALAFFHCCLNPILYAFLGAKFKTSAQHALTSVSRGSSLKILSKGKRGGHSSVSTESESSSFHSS
Experiment: BiFC, U-2 OS cells; score=(positive cells/total cells)x100
Conditions: remark: other sources report otherwise

BiFC score: 9.9
B1: CXCR4-VN, P61073 1-352 (receptor, human, UniProt P61073 1-352, looked up, not shown: small tags and cut ends)
chain: MEGISIYTSDNYTEEMGSGDYDSMKEPCFREENANFNKIFLPTIYSIIFLTGIVGNGLVILVMGYQKKLRSMTDKYRLHLSVADLLFVITLPFWAVDAVANWYFGNFLCKAVHVIYTVNLYSSVLILAFISLDRYLAIVHATNSQRPRKLLAEKVVYVGVWIPALLLTIPDFIFANVSEADDRYICDRFYPNDLWVVVFQFQHIMVGLILPGIVILSCYCIIISKLSHSKGHQKRKALKTTVILILAFFACWLPYYIGISIDSFILLEIIKQGCEFENTVHKWISITEALAFFHCCLNPILYAFLGAKFKTSAQHALTSVSRGSSLKILSKGKRGGHSSVSTESESSSFHSS
